These results are taken from patent publication US20170145112A1 (Genentech, published 2017).

A word on the Kd: it is the free concentration of one partner at which half of the binding sites on the other are occupied at equilibrium, for simple one-to-one binding. For orientation: koff means the rate constant with which the complex falls apart. Usually kon stands for the rate constant with which the complex forms.

Assay [1] deals with T1, Human complement Factor D, mature (human, UniProt P00746 27-253). Put plainly: cell-based or functional assay.
Target sequence in this assay (P00746 27-253): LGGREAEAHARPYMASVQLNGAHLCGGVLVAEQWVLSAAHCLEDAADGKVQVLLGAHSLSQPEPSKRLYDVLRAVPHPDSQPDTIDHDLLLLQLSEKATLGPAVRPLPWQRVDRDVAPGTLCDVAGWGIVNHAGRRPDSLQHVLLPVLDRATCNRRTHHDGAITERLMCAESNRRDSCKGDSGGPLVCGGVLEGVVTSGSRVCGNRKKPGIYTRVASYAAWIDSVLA
Assay [2] addresses T1, Human complement Factor D, mature. Put plainly: cell-based or functional assay. The source holds these as a separate data set.
Assay [3] deals with T2, Cynomolgus monkey complement Factor D (cynomolgus monkey, UniProt P00746 26-253 (human entry)).
T2 construct: also called cyfD; cFD
T2 chain: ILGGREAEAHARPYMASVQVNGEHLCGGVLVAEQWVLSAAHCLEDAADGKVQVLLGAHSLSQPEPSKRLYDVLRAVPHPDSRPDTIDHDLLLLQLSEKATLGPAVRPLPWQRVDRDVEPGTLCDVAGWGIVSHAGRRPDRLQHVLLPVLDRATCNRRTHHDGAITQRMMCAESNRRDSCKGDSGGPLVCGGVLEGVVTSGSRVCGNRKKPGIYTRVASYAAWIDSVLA
Put plainly: SPR (Biacore T200), Fab format; cynomolgus Factor D (column 'KD (pM) cFD (cyno)'). Background: In SPR one partner is held on a chip, and binding of the other changes the refractive index at the surface.

For assay [4], the target named is T1, Human complement Factor D, mature. As to the kind of experiment: SPR (Biacore T200): Fab captured with anti-huFab kit, human Factor D injected, 25 C, 1:1 model.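 Also: sensorgrams were corrected by subtracting a blank injection of running buffer before fitting kinetic and affinity constants.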
Protocol: (§1) Kinetics and binding constant KD for Factor D binding to immobilized hu20D12 versions was determined by surface plasmon resonance (SPR) measurements on a Biacore®T200 instrument. […] After subtraction of the sensorgram observed for injection of running buffer, data were analyzed according to a 1:1 model using BiaEval software v4.1 (GE Healthcare) to extract the kinetics and affinity constants.
Assay [5] has the same target. Put plainly: SPR, at the limit of detection.
Target sequence in this assay (P00746 27-253): as the sequence (P00746 27-253) above
Protocol: as §1

B1: AFD.v8.C + PEG tetramer (Fab, V domains shown)
VH: EVQLVQSGPELKKPGASVKVSCKASGYTFTNYGMNWVRQAPGQGLEWMGWINTYTGETTYAEDFKGRFVFSLDTSVSTAYLQISSLKAEDTAVYYCEREGGVNNWGQGTLVTVSS
VL: DIQVTQSPSSLSASVGDRVTITCITSTSIESDMNWYQQKPGKVPKLLISGGNTLRPGVPSRFSGSGSGTDFTLTISSLQPEDVATYYCLQSDSLPYTFGQGTKVEIKR
modifications: C-terminal Cys linked through maleimide to 40K-tetramer-PEG (Sunbright PTE-400MA)
As for B1, in assay [1], the “AVG IC50 (pM), TR-FRET assay of Factor D-dependent factor B activation” value (“AVG IC50 (pM), TR-FRET assay” for short) was found to be 11 pM.

B2: AFD.v8 Fab (Fab, V domains shown)
VH: EVQLVQSGPELKKPGASVKVSCKASGYTFTNYGMNWVRQAPGQGLEWMGWINTYTGETTYAEDFKGRFVFSLDTSVSTAYLQISSLKAEDTAVYYCEREGGVNNWGQGTLVTVSS
VL: DIQVTQSPSSLSASVGDRVTITCITSTSIESDMNWYQQKPGKVPKLLISGGNTLRPGVPSRFSGSGSGTDFTLTISSLQPEDVATYYCLQSDSLPYTFGQGTKVEIKR
notes: Variant of lampalizumab
In the case of B2, the “AVG IC50 (pM), TR-FRET assay” value in assay [1] is 27.6 pM. In assay [2], the “FRET IC50 (TR-FRET assay of Factor D-dependent factor B activation), value 1 of 2 in the cell” value turned out to be 0.021 nM and the “FRET IC50 (TR-FRET assay of Factor D-dependent factor B activation), value 2 of 2 in the cell” value was 0.028 nM. Besides, binding in assay [3] was put at a Kd of 0.024 nM. In assay [4], this molecule yielded a Kd of 0.0105 nM, a koff of 0.00021 s⁻¹ and a kon of 2e+07 M⁻¹ s⁻¹.

B3: AFD.v14.C + PEG tetramer (Fab, V domains shown)
VH: EVQLVQSGPELKKPGASVKVSCKASGYTFTNYGMNWVRQAPGQGLEWMGWINTYTGETTYAEDFKGRFVFSLDTSVSTAYLQISSLKAEDTAVYYCEREGGVSNWGQGTLVTVSS
VL: DIQVTQSPSSLSASVGDRVTITCITSTSIESDMNWYQQKPGKVPKLLISGGNTLRPGVPSRFSGSGSGTDFTLTISSLQPEDVATYYCLQSDSLPYTFGQGTKVEIKR
modifications: C-terminal Cys linked through maleimide to a PEG tetramer
Take B3: the “AVG IC50 (pM), TR-FRET assay” value in assay [1] worked out at 14.8 pM.

B4: Lampalizumab (Fab, V domains shown)
VH: EVQLVQSGPELKKPGASVKVSCKASGYTFTNYGMNWVRQAPGQGLEWMGWINTYTGETTYADDFKGRFVFSLDTSVSTAYLQISSLKAEDTAVYYCEREGGVNNWGQGTLVTVSS
VL: DIQVTQSPSSLSASVGDRVTITCITSTDIDDDMNWYQQKPGKVPKLLISGGNTLRPGVPSRFSGSGSGTDFTLTISSLQPEDVATYYCLQSDSLPYTFGQGTKVEIKR
notes: Humanized anti-Factor D Fab fragment; also called aFD.WT; FCFD4515S
For the molecule B4, the equilibrium dissociation constant (Kd) in assay [3] was determined as 0.03 nM.

B5: hu20D12.v2.3.C + PEG tetramer (Fab, V domains shown)
VH: EVQLVQSGAEVKKPGASVKVSCKASGYTFTSYYMYWVRQAPGQGLEWIGEINPYSGDTNFNEKFKSRATLTVDTSTSTAYLELSSLRSEDTAVYYCAREGGFAYWGQGTLVTVSS
VL: DIQMTQSPSSLSASVGDRVTITCKASQNVDTDVAWFQQKPGKAPKGLIRSASSRYSGVPSRFSGSGSGTDFTLTISSLQPEDFATYYCQQYNNYPLTFGQGTKVEIKR
modifications: C-terminal Cys linked through maleimide to 40K-tetramer-PEG (Sunbright PTE-400MA)
With B5, the “AVG IC50 (pM), TR-FRET assay” value in assay [1] came to 35.2 pM.

B6: hu20D12.v2.11 Fab (Fab, V domains shown)
VH: EVQLVQSGAEVKKPGASVKVSCKASGYTFTSYYMYWVRQAPGQGLEWIGEINPTSGGTNFNEKFKSRATLTVDTSTSTAYLELSSLRSEDTAVYYCAREGGFAYWGQGTLVTVSS
VL: DIQMTQSPSSLSASVGDRVTITCKASQNVDTDVAWFQQKPGKAPKGLIYSASSRRSGVPSRFSGSGSGTDFTLTISSLQPEDFATYYCQQYNNYPLTFGQGTKVEIKR
In assay [4], B6 displayed a Kd of 10 nM, a koff of 0.03 s⁻¹ and a kon of 3e+06 M⁻¹ s⁻¹.

B7: hu20D12.v2.12 Fab (Fab, V domains shown)
VH: EVQLVQSGAEVKKPGASVKVSCKASGYTFTSYYMYWVRQAPGQGLEWIGEINPYSGGTNFNEKFKSRATLTVDTSTSTAYLELSSLRSEDTAVYYCAREGGFAYWGQGTLVTVSS
VL: DIQMTQSPSSLSASVGDRVTITCKASQNVDTDVAWFQQKPGKAPKGLIRSASSRYSGVPSRFSGSGSGTDFTLTISSLQPEDFATYYCQQYNNYPLTFGQGTKVEIKR
Take B7: the Kd in assay [5] is about 0.01 nM. In assay [4], this molecule had a Kd of under 0.01 nM, a koff of 0.00015 s⁻¹ and a kon of 1.8e+07 M⁻¹ s⁻¹.

B8: hu20D12.v2.8 Fab (Fab, V domains shown)
VH: EVQLVQSGAEVKKPGASVKVSCKASGYTFTSYYMYWVRQAPGQGLEWIGEINPTSGGTNFNEKFKSRATLTVDTSTSTAYLELSSLRSEDTAVYYCAREGGFAYWGQGTLVTVSS
VL: DIQMTQSPSSLSASVGDRVTITCKASQNVDTDVAWFQQKPGKAPKGLIQSASSRYSGVPSRFSGSGSGTDFTLTISSLQPEDFATYYCQQYNNYPLTFGQGTKVEIKR
For the molecule B8, in assay [4], the Kd was 0.061 nM, the koff worked out at 0.004 s⁻¹ and the kon worked out at 6.6e+07 M⁻¹ s⁻¹.

B9: hu20D12.v2.5 Fab (Fab, V domains shown)
VH: EVQLVQSGAEVKKPGASVKVSCKASGYTFTSYYMYWVRQAPGQGLEWIGEINPYSGGTNFNEKFKSRATLTVDTSTSTAYLELSSLRSEDTAVYYCAREGGFAYWGQGTLVTVSS
VL: DIQMTQSPSSLSASVGDRVTITCKASQNVDTDVAWFQQKPGKAPKGLIYSASSRYSGVPSRFSGSGSGTDFTLTISSLQPEDFATYYCQQYNNYPLTFGQGTKVEIKR
In assay [4], B9 came in with a Kd of 0.045 nM, a koff of 0.00079 s⁻¹ and a kon of 1.7e+07 M⁻¹ s⁻¹.

B10: hu20D12.v2.10 Fab (Fab, V domains shown)
VH: EVQLVQSGAEVKKPGASVKVSCKASGYTFTSYYMYWVRQAPGQGLEWIGEINPTSGGTNFNEKFKSRATLTVDTSTSTAYLELSSLRSEDTAVYYCAREGGFAYWGQGTLVTVSS
VL: DIQMTQSPSSLSASVGDRVTITCKASQNVDTDVAWFQQKPGKAPKGLIYSASSRKSGVPSRFSGSGSGTDFTLTISSLQPEDFATYYCQQYNNYPLTFGQGTKVEIKR
In assay [4], B10 showed a Kd of 6 nM, a koff of 0.03 s⁻¹ and a kon of 5e+06 M⁻¹ s⁻¹.

B11: hu20D12.v2.13 Fab (Fab, V domains shown)
VH: EVQLVQSGAEVKKPGASVKVSCKASGYTFTSYYMYWVRQAPGQGLEWIGEINPTSGGTNFNEKFKSRATLTVDTSTSTAYLELSSLRSEDTAVYYCAREGGFAYWGQGTLVTVSS
VL: DIQMTQSPSSLSASVGDRVTITCKASQNVDTDVAWFQQKPGKAPKGLIRSASSRYSGVPSRFSGSGSGTDFTLTISSLQPEDFATYYCQQYENYPLTFGQGTKVEIKR
On to B11, for which, in assay [5], the Kd is about 0.01 nM. In assay [4], this molecule came in with a Kd of under 0.01 nM, a koff of 0.00013 s⁻¹ and a kon of 4.1e+07 M⁻¹ s⁻¹.

B12: hu20D12.v2.7 Fab (Fab, V domains shown)
VH: EVQLVQSGAEVKKPGASVKVSCKASGYTFTSYYMYWVRQAPGQGLEWIGEINPTSGGTNFNEKFKSRATLTVDTSTSTAYLELSSLRSEDTAVYYCAREGGFAYWGQGTLVTVSS
VL: DIQMTQSPSSLSASVGDRVTITCKASQNVDTDVAWFQQKPGKAPKGLIKSASSRYSGVPSRFSGSGSGTDFTLTISSLQPEDFATYYCQQYNNYPLTFGQGTKVEIKR
In assay [4], B12 came in with a Kd of 0.049 nM, a koff of 0.00055 s⁻¹ and a kon of 1.1e+07 M⁻¹ s⁻¹.

B13: hu20D12.v2.2 Fab (Fab, V domains shown)
VH: EVQLVQSGAEVKKPGASVKVSCKASGYTFTSYYMYWVRQAPGQGLEWIGEINPTSGDTNFNEKFKSRATLTVDTSTSTAYLELSSLRSEDTAVYYCAREGGFAYWGQGTLVTVSS
VL: DIQMTQSPSSLSASVGDRVTITCKASQNVDTDVAWFQQKPGKAPKGLIYSASSRYSGVPSRFSGSGSGTDFTLTISSLQPEDFATYYCQQYNNYPLTFGQGTKVEIKR
As to B13, in assay [4], binding was characterised by a dissociation constant (Kd) of 0.065 nM, the koff worked out at 0.00095 s⁻¹ and the kon was 1.5e+07 M⁻¹ s⁻¹.

B14: hu20D12.v2.9 Fab (Fab, V domains shown)
VH: EVQLVQSGAEVKKPGASVKVSCKASGYTFTSYYMYWVRQAPGQGLEWIGWINPTSGGTNFNEKFKSRATLTVDTSTSTAYLELSSLRSEDTAVYYCAREGGFAYWGQGTLVTVSS
VL: DIQMTQSPSSLSASVGDRVTITCKASQNVDTDVAWFQQKPGKAPKGLIYSASSRYSGVPSRFSGSGSGTDFTLTISSLQPEDFATYYCQQYNNYPLTFGQGTKVEIKR
Consider B14, for which, in assay [4], the Kd was found to be 0.185 nM, the koff amounted to 0.0063 s⁻¹ and the kon came to 3.4e+07 M⁻¹ s⁻¹.

B15: hu20D12.v2.4 Fab (Fab, V domains shown)
VH: EVQLVQSGAEVKKPGASVKVSCKASGYTFTSYYMYWVRQAPGQGLEWIGEINPTSGETNFNEKFKSRATLTVDTSTSTAYLELSSLRSEDTAVYYCAREGGFAYWGQGTLVTVSS
VL: DIQMTQSPSSLSASVGDRVTITCKASQNVDTDVAWFQQKPGKAPKGLIYSASSRYSGVPSRFSGSGSGTDFTLTISSLQPEDFATYYCQQYNNYPLTFGQGTKVEIKR
In assay [4], B15 yielded a Kd of 0.028 nM, a koff of 0.00049 s⁻¹ and a kon of 1.7e+07 M⁻¹ s⁻¹.

B16: hu20D12.v2.6 Fab (Fab, V domains shown)
VH: EVQLVQSGAEVKKPGASVKVSCKASGYTFTSYYMYWVRQAPGQGLEWIGEINPTSGGTNFNEKFKSRATLTVDTSTSTAYLELSSLRSEDTAVYYCAREGGFAYWGQGTLVTVSS
VL: DIQMTQSPSSLSASVGDRVTITCKASQNVDTDVAWFQQKPGKAPKGLISSASSRYSGVPSRFSGSGSGTDFTLTISSLQPEDFATYYCQQYNNYPLTFGQGTKVEIKR
As to B16, in assay [4], the Kd is 0.143 nM, the dissociation rate constant (koff) was found to be 0.0003 s⁻¹ and the kon was 2.1e+06 M⁻¹ s⁻¹.
